Tests used:
[1] = biological target: T1, intact K8/K18(1-65) heterotypic complex (human, UniProt P05787 2-483; P05783 2-66); experiment: heterotypic association Western blot (K18 fragments on the membrane, incubated with purified intact K8)
T1 construct: Heterotypic complex of two GST fusion proteins; not shown: glutathione S-transferase (GST) fusion partner, modified pGEX-2T vector
T1 chain 1: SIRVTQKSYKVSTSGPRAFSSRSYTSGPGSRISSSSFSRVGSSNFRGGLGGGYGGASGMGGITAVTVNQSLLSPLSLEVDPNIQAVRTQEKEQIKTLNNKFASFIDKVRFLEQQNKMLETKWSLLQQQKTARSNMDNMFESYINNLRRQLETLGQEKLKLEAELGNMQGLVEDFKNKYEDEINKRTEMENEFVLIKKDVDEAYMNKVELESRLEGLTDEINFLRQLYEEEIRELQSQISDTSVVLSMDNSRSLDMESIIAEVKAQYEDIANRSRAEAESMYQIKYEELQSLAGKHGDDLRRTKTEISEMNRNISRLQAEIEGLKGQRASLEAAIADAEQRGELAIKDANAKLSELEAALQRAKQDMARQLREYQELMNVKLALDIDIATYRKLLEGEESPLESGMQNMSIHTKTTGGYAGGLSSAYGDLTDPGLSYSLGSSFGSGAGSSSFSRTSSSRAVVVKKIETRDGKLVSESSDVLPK
T1 chain 2: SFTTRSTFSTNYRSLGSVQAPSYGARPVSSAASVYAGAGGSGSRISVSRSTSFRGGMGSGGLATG

[2] = biological target: T2, N-terminally truncated K8 protein where the first 22 amino acids were missing (from colon cancer tissue) (human, UniProt P05787 24-483); experiment: Western blot of cytokeratin bands from colon cancer tissue, bands identified by N-terminal sequencing (drawn table)
T2 construct: also called K8 starting at residue 23
T2 chain: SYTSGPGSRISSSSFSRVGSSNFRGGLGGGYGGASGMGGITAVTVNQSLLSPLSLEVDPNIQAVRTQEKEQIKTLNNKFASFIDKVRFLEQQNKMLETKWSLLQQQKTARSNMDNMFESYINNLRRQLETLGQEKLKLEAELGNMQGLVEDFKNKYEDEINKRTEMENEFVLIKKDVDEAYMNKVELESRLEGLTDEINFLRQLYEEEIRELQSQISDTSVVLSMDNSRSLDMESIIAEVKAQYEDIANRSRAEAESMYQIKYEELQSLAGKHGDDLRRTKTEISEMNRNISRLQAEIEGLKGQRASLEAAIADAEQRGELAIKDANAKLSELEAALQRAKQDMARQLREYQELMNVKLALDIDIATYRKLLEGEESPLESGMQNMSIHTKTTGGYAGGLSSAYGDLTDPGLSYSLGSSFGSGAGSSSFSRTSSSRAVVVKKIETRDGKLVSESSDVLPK

[3] = biological target: T3, K8(1-85)/K18(1-124) heterotypic complex (human, UniProt P05787 2-86; P05783 2-125); experiment: heterotypic association assay: blotted K8 proteins incubated with purified K18(1-124), then stained with COU-1
T3 construct: Heterotypic complex of two GST fusion proteins; not shown: glutathione S-transferase (GST) fusion partner, modified pGEX-2T vector

[4] = biological target: T4, K18(1-187) GST fusion protein (human, UniProt P05783 2-188); experiment: Western blot of SDS-PAGE-separated K18 GST fusion proteins, stained with COU-1 alone
T4 construct: Alone, not complexed; not shown: glutathione S-transferase (GST) fusion partner, modified pGEX-2T vector
T4 sequence: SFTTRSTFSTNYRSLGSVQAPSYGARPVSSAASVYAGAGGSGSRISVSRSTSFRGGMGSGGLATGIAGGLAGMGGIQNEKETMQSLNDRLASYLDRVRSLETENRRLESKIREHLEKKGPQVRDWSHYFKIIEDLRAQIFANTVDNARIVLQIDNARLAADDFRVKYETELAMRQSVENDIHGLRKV

[5] = biological target: T5, K18(1-356) GST fusion protein (human, UniProt P05783 2-357); experiment: as above
T5 construct: Alone, not complexed; not shown: glutathione S-transferase (GST) fusion partner, modified pGEX-2T vector
T5 sequence: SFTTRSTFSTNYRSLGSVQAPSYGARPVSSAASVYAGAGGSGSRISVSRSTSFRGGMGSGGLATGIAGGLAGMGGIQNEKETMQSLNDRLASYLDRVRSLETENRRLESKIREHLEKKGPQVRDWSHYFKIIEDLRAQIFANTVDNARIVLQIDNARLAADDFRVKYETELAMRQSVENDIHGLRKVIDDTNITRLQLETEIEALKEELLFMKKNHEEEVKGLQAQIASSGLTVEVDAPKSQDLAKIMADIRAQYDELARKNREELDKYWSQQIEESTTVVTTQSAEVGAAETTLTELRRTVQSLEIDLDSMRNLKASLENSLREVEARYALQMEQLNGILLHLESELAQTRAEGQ

[6] = biological target: T6, K18(1-312) GST fusion protein (human, UniProt P05783 2-313); experiment: as above
T6 construct: Alone, not complexed; not shown: glutathione S-transferase (GST) fusion partner, modified pGEX-2T vector
T6 sequence: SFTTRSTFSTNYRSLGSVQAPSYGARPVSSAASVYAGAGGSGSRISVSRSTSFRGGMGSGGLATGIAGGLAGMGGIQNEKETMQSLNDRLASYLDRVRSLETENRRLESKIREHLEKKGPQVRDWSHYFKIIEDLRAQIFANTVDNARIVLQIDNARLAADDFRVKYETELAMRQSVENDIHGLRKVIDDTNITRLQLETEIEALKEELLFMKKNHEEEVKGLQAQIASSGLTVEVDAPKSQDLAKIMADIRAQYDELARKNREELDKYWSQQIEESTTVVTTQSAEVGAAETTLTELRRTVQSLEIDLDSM

[7] = biological target: T7, K18(1-213) GST fusion protein (human, UniProt P05783 2-214); experiment: as above
T7 construct: Alone, not complexed; not shown: glutathione S-transferase (GST) fusion partner, modified pGEX-2T vector
T7 sequence: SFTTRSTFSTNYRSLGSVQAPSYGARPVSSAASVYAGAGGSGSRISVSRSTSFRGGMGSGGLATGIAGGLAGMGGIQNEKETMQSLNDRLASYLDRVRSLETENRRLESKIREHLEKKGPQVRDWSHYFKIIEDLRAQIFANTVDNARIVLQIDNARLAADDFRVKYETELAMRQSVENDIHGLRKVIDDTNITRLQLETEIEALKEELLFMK

[8] = biological target: T8, K18(1-65) GST fusion protein (human, UniProt P05783 2-66); experiment: Western blot of SDS-PAGE-separated GST fusion proteins
T8 construct: Alone, not complexed; not shown: glutathione S-transferase (GST) fusion partner, modified pGEX-2T vector
T8 sequence: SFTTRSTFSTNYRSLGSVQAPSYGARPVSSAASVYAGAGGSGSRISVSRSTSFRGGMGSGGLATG

B1: human monoclonal IgM antibody COU-1 (antibody, V domains shown)
VH: GAEVKKPGASVKVSCKASDYTFSSYYMHWVRQAPGQGLEWMGIINPSGGSTSYAQKFQGRVTMTRDTSTNTVYMELSSLRSEDTAVYYCARDQVVVAATLSNYGMDVWGQGTTVTVSS
VL: ELTQSPGTLSLSPGERATLSCRASQSVSSSYLAWYQQKPGQAPRLLIYDASNRATGIPARFSGSGSGTDFTLTISSLEPEDFAVYYCQQGTNWGIAFGQGTRLDIKR
notes: Human IgM with kappa light chain, secreted by hybridoma B9165 (ECACC 87040201), purified from culture supernatant; also called HMab COU-1; HuMab COU-1
**Q.** Does B1 bind [1]?
**A.** Result: no binding (tested: COU-1 5 µg/ml)

**Q.** Does B1 bind [2]?
**A.** Result: no binding (tested: 5 µg/ml COU-1 (P-0279))

**Q.** Does B1 bind [3]?
**A.** Result: no binding (tested: 5 µg/ml COU-1 (P-0285))

**Q.** Does B1 bind [4]?
**A.** Result: no binding (tested: 5 µg/ml COU-1 (P-0279))

**Q.** Does B1 bind [5]?
**A.** Result: no binding (tested: 5 µg/ml COU-1 (P-0279))

**Q.** Does B1 bind [6]?
**A.** Result: no binding (tested: 5 µg/ml COU-1 (P-0279))

**Q.** Does B1 bind [7]?
**A.** Result: no binding (tested: 5 µg/ml COU-1 (P-0279))

**Q.** Does B1 bind [8]?
**A.** Result: no binding (tested: COU-1 5 µg/ml)

From patent publication US20050048070A1 (published 2005)
